In patent publication US7531500B2, “Preventing airway mucus production by administration of EGF-R antagonists” (The Regents of the University of California, priority 1998, dated 2009):

Legend:
[1] = test system: NCI-H292 cells; experiment: Immunoassay of MUC5AC protein in NCI-H292 cells (Example 2); type: cell-based, human; details: 1 h incubation, protein at 24 h; IL-8 10^-8 M, fMLP 10^-8 M, TNFα 20 ng/ml
[2] = test system: rat nasal septal epithelium; experiment: fMLP-induced degranulation and regranulation of goblet cells in rat nasal epithelium; type: in vivo
Procedure: Nasal Tissue Preparation. At various times after inhalation, rats were anesthetized with pentobarbital sodium (65 mg/kg, i.p.). The heart of the animal was exposed, a blunt-ended needle was inserted from the apex of the left ventricle into the ascending aorta, and the systemic circulation was perfused with 1% paraformaldehyde. An incision in the right atrium provided an outlet for the fixative. The eyes, lower jaws, skin, and musculature were removed, and the head was immersed in a large volume of the same fixative for 24 h. […]
Counting of Neutrophils in Nasal Epithelium. Neutrophils were counted in high power fields of the epithelial layer stained with 3,3′-diaminobenzidine at magnification ×400. The number of neutrophils within the nasal sepal epithelium (from the basement membrane to cell apices) was determined by counting the number of nuclear profiles per unit of basal lamina length.
Quantification of Goblet Cell Degranulation and Regranulation. To assess goblet cell degranulation and regranulation, we measured the volume density of Alcian blue/PAS-stained mucosubstances on the mucosal surface epithelium using a semiautomatic imaging system according to a previously published method. […] Images of the nasal epithelium were recorded in high power fields with a phase contrast lens at x400, using an IMAXX Video System (PDI, Redmond, Wash.). […]

[3] = test system: human neutrophils; experiment: Chemotaxis of human neutrophils (microchemotaxis chamber); type: cell-based; details: 10^-10, 10^-9, 5×10^-9 M
Procedure: Human neutrophils were purified from peripheral blood obtained from healthy donors. Neutrophil isolation was performed by standard techniques of Ficoll-Hypaque gradient separation, dextran sedimentation, and hypotonic lysis of erythrocytes. Cells were routinely >95% viable by trypan blue dye exclusion. To prevent endotoxin contamination, all solutions were passed through a […]. Chemotactic activity was assessed in 48-well microchemotaxis chamber (Neuroprobe, Cabin John, Md.), utilizing the leading front technique. Migration was measured as net movement of neutrophils ([…]) through a nitrocellulose filter (pore size, 3 μm) after 25 min at 37° C. The effect of IL-13 (10^−10, 10^−9, and 5×10^−9 M; recombinant human IL-13, R&D systems, Minneapolis, Minn.) is expressed as the distance traveled, compared to the random migration of neutrophils incubated with RPMI 1640.

[4] = test system: pathogen-free rats; experiment: IL-13-induced goblet cell metaplasia in rat airways; type: in vivo
Procedure: Animals were anesthetized with pentobarbital [Nembutal sodium, 50 mg/kg, intraperitoneally (ip), Abbott Laboratories, North Chicago, Ill.] and allowed to breathe spontaneously. Vehicle (phosphate buffer solution, PBS) or IL-13 was instilled intratracheally via a 20-gauge Angiocath catheter (Beckton Dickinson, Sandy, Utah) through the mouth, while the laryngeal area was visualized using a high-intensity illuminator (FiberLite; Dolan Jenner Industries, Inc., Lawrence, Mass.). The […] tissues were examined 48 hours after instillation of IL-13. Various concentrations of IL-13 (recombinant murine IL-13; 5, 50, 100, and 500 ng/rat, R&D systems, Minneapolis, Minn.) were instilled into the trachea in […]. Sterile PBS (200 μl) was instilled into the trachea as controls. For examination of the relationship between IL-13-induced GC metaplasia and activation of EGFR, animals were pretreated 1 d before instillation of IL-13 and daily thereafter with a selective EGFR tyrosine kinase inhibitor (BIBX 1522; 1-30 mg/kg/day, ip; Boehringer Ingelheim, Ingelheim, Germany). Animals were euthanized 48 hours after instillation of IL-13. In preliminary studies, we noted that IL-13 causes leukocyte recruitment into the airways. We hypothesized that leukocyte recruitment results from IL-13-induced chemoattractant release from epithelium, and that this recruitment is involved in the IL-13-induced EGFR cascade leading to GC metaplasia. Groups of animals were euthanized 4, 8, 16, 24, and 48 hours after instillation of IL-13 (500 ng), and leukocytes were counted in airway tissue. […] Sigma chemical Co., St Louis, Mo.] or with a blocking antibody to interleukin-8 (IL-BAb; rabbit anti-human IL-8 antibody; Biosource, Camarillo, Calif.). […] In another series of studies, we instilled IL-8 Ab (10 μg/rat) intratracheally, along with IL-13; we repeated the instillation of anti-human IL-8 blocking antibody at 12 hour intervals until the animals were euthanized. Animals were euthanized with a lethal dose of pentobarbital (Nembutal sodium, 200 mg/kg, ip, Abbott Laboratories, North Chicago, Ill.), and the systemic circulation was perfused with 1% paraformaldehyde in Diethylpyrocarbonate (DEPC, Sigma chemical Co., St Louis, Mo.)-treated PBS via the left ventricle. For frozen sections, […] tissues were removed, placed in 4% paraformaldehyde overnight, and then placed in 30% sucrose for cryoprotection. The tissues were embedded in optimal cutting temperature (OCT, […]., Inc., Torrance, Calif.) compound. For plastic or paraffin sections, tissues were placed in 4% paraformaldehyde overnight, dehydrated with ethanol, and embedded in JB-4 plus monomer solution A (Polysclences, Inc., Warrington, Pa.) or in paraffin. The embedded tissues were cut as cross sections 4 μm thick and placed on glass slides. In all studies, the carina was examined to obtain consistent sampling. We measured AB/PAS-positive areas and total epithelial area, and we expressed the results as the percentage of AB/PAS area to total epithelial area. The analysis was performed with the public domain NIH IMAGE program (developed at the U.S. National Institutes of Health and available by anonymous FTP from zippy.nimh.gov. or floppy disk from the National Technical Information Service, Springfield, Va., part number PB95-500195GEI). […] For immunohistochemical localization of […], we used mouse anti-human IL-8 antibody (1:20; Biosource, Camarillo, Calif.). The sections were then incubated with biotinylated horse anti-mouse IgG (Vector Laboratories, Burlingame, Calif.) at 1:200 dilution for 1 hour at room temperature. Bound antibody was visualized according to standard protocols for avidin-biotin-peroxidase complex method. The measurement of MUC5AC protein also utilized the same method used for quantitative measurement of GC metaplasia in the epithelium. Animals were euthanized 4, 8, 16, 24, and 48 hours after instillation of IL-13 (500 ng), and leukocytes were counted in airway tissue. […]

[5] = IL-13 5, 50, 100, 500 ng/rat intratracheal, 48 hours, dose-dependently

## CSCC[C@H](NC=O)C(=O)N[C@@H](CC(C)C)C(=O)N[C@@H](Cc1ccccc1)C(=O)O [fMLP, N-formyl-methionyl-leucyl-phenylalanine]
[1]
  MUC5AC synthesis, stimulus alone without neutrophils: no effect
[2]; 4 h after fMLP aerosol (10^-7 M)
  area of MUC5AC-positive immunostaining: markedly decreased
[2]; 4 h after fMLP aerosol (10^-7 M) intranasally for 5 min
  AB/PAS-stained area of nasal epithelium: markedly decreased

B1: IL-13: recombinant murine IL-13 in rats; recombinant human IL-13 in chemotaxis (R&D systems) (protein, UniProt P20109 19-131, looked up)
Interleukin-13: APGPVPRSVSLPLTLKELIEELSNITQDQTPLCNGSMVWSVDLAAGGFCVALDSLTNISNCNAIYRTQRILHGLCNRKAPTTVSSLPDTKIEVAHFITKLLSYTKQLFRHGPF
[3]
  neutrophil movement: decreased neutrophil movement dose-dependently
[4]; IL-13 500 ng
  leukocyte recruitment into airway epithelium: time-dependent leukocyte recruitment
  start of leukocyte recruitment: approximately 8 hours
  time of maximal leukocyte recruitment: ≤ 24 h
[4]; [5]
  AB/PAS staining in rat airway epithelium: increased
  MUC5AC staining in rat airway epithelium: increased
[4]; instillation of IL-13
  EGFR expression in airway epithelium: increased
  staining of airway epithelium with anti-human IL-8 antibody (IL-8-like chemoattractant): positive staining
[4]; instillation of IL-13, mainly in infiltrating neutrophils
  TNFα expression in rat airway tissue: induced
